Experimental data reported in patent US20250269018A1, “COMBINED CANCER THERAPY WITH AN EPITHELIAL CELL ADHESION MOLECULE (EPCAM) INHIBITOR AND A HEPATOCYTE GROWTH FACTOR RECEPTOR (HGFR) INHIBITOR” (ACADEMIA SINICA, priority 2021, published 2025).
Entries after “also recorded” stand apart in the source; their conditions may differ. Each block holds one molecule with its values, some of them ahead of it.

Legend:
[1] = tested on: HGFR signaling; assay: Western blotting of phosphorylated HGFR, AKT, ERK, FAK in HCT116 cells; format: cell-based, human; conditions: HCT116; 10 μg/ml 16 h, then EpEX-His 50 nM 15 min; FIG. 7D
Protocol: FIGS. 2A to 2K. EpEX promotes tumor progression via HGFR signaling. (FIG. 2A) WT or EpCAM knockout (KO) HCT116 and HT29 cells treated with HGF (0.5 nM) for 15 min. The phosphorylation of HGFR, AKT, and ERK was examined by Western blotting. (FIG. 2B) WT or KO HCT116 and HT29 cells were treated with HGF (0.5 nM) with 2% FBS for the indicated times. Cell growth was examined by the WST-1 assay. (FIG. 2C) Starved HCT116 cells were treated with HGFR inhibitor SU11274 (SU, 10 μM) for 1 h then treated with 50 nM of EpEX-His for 15 min. The levels of phosphorylated HGFR, EGFR, AKT, and ERK were examined by Western blotting. HCT116 and HT29 cells were treated with 50 nM EpEX and SU (10 μM). (FIG. 2D) Cell growth was examined by WST-1 assay after treatment for indicated time. (FIG. 2E) HCT116 cells were treated with shLuc or HGFR shRNA then treated with 50 nM of EpEX-His for 15 min. The levels of phosphorylated HGFR, EGFR, ERK, and AKT were examined in HGFR knockdown HCT116 cells by Western blotting. (FIG. 2F) The levels of phosphorylated ADAM17 and presenilin 2 were examined by Western blotting. (FIG. 2G) Active β-catenin nuclear translocation was assay by using Western blotting. (H) HCT116 cells were treated with shLuc or HGFR shRNA then treated with 50 nM of EpEX-His for indicated times. Cell growth was examined by the WST-1 assay. (FIG. 2I) HCT116 cells after shLuc and shHGFR treatment were treated with 50 nM of EpEX-His with 2% FBS for 7 days. Colony formation was examined by crystal violet staining.
FIGS. 6A to 6J. EpAb2-6 inhibits EpCAM and HGFR signaling and promotes active β-catenin and Snail protein degradation via activating GSK3β. (FIG. 6A) HCT116 cells were treated with 10 μg/ml control IgG (normal mouse IgG, NMIgG) or mouse EpAb2-6 (EpAb2-6) for 16 h, followed by treatment with EpEX-His (50 nM) for 15 min. Levels of phosphorylated HGFR, AKT, FAK, GSK3β, ERK, ADAM17, and presenilin 2 were examined by Western blotting. (FIG. 6B) HCT116 cells were treated with 10 μg/ml control IgG or mouse EpAb2-6 for 16 h, followed by treatment without or with HGF (0.5 nM) for 15 min. Levels of phosphorylated HGFR, AKT, and ERK were examined by Western blotting. HCT116 cells were treated with mouse EpAb2-6 (10 μg/ml) and HGF (0.5 nM). (FIG. 6C) Cell migration was examined by the wound healing assay at the indicated times. (FIG. 6D) Cell invasion was assessed by a Transwell assay with matrigel after 24 h. (FIG. 6E) HCT116 cells were treated with NMIgG or EpAb2-6 for 6 h and then immunoprecipitated with anti-EpCAM (IP: EpCAM) or anti-HGFR (IP: HGFR) antibodies, followed by Western blotting. (FIG. 6F) EpEX-His (2 μg/ml) co-treated with 1 μg IgG or EpAb2-6 was added to HGFR-Fc-coated (1 μg/ml) ELISA plates and detected by TMB colorimetric peroxidase assay. (FIG. 6G) EMT associated protein levels were detected by Western blotting in HCT116 cells treated with NMIgG or EpAb2-6 for 24 h. (FIG. 6H) Protein expression was analyzed by Western blotting in HCT116 cells after treatment with EpAb2-6 and 2 μM GSK3β inhibitor (BIO) for 24 h. Quantification of the normalized protein expression in the bottom panel. (FIG. 6I) HCT116 cells were treated with 10 μM MG132 and EpAb2-6 for 6 h before cell collection and subsequent Western blotting. (FIG. 6J) Stability of Snail protein in HCT116 cells treated with NMIgG or EpAb2-6. Cells were treated with cyclohexamide (CHX) 100 μg/ml at the indicated intervals and subjected to Western blotting.
FIGS. 7A to 7G. EpAb2-6 binds EpEX and induces apoptosis by F(ab′)2 and inhibits regulated intramembrane proteolysis (RIP) activation and HGFR signaling. (FIG. 7A) Binding affinity of IgG EpAb2-6 (mouse) and F(ab′)2 to EpEX-His (1 μg/ml) coated overnight was checked using ELISA (OD450). (FIG. 7B) HCT116 cells were treated with 100 μg/ml control IgG, Fc, or F(ab′)2 of EpAb2-6 for 24 h. The apoptotic and necrotic cells were quantified by fluorescein annexin V-FITC/PI double labeling. […]

[2] = tested on: HT29 cells; assay: Apoptosis assay, annexin V-FITC/PI double labeling, HT29; format: cell-based, human; conditions: 10 μg/ml 24 h, FIG. 7C
Protocol: (§1) FIGS. 7A to 7G. EpAb2-6 binds EpEX and induces apoptosis by F(ab′)2 and inhibits regulated intramembrane proteolysis (RIP) activation and HGFR signaling. (FIG. 7A) Binding affinity of IgG EpAb2-6 (mouse) and F(ab′)2 to EpEX-His (1 μg/ml) coated overnight was checked using ELISA (OD450). (FIG. 7B) HCT116 cells were treated with 100 μg/ml control IgG, Fc, or F(ab′)2 of EpAb2-6 for 24 h. The apoptotic and necrotic cells were quantified by fluorescein annexin V-FITC/PI double labeling. (FIG. 7C) HCT116 and HT29 cells were treated with 10 μg/ml control IgG, MT201, humanized EpAb2-6 (hEpAb2-6) or mouse hybridoma EbAb2-6 (mEpAb2-6) for 24 h. The apoptotic and necrotic cells were quantified by fluorescein annexin V-FITC/PI double labeling. (FIG. 7D) HCT116 cells were treated with 10 μg/ml control IgG, MT201, hEpAb2-6 or mEpAb2-6 for 16 h, followed by treatment with EpEX-His (50 nM) for 15 min. Levels of phosphorylated HGFR, AKT, and ERK, and (FIG. 7E) RIP proteins ADAM17 and presenilin 2 were examined by Western blotting. Anti-EpCAM antibody and crizotinib coordinately induces apoptosis in colon cancer cells. (FIG. 7F) HCT116 and HT29 cells were treated with 10 μg/ml NMIgG or EpAb2-6 and 4 μM HGFR inhibitor crizotinib for 24 h. The apoptotic and necrotic cells were quantified by fluorescein annexin V-FITC/PI double labeling. (FIG. 7G) HCT116 and HT29 cells were treated with 10 μg/ml NMIgG or EpAb2-6 and 10 μM HGFR inhibitor crizotinib. Cell invasion was assessed by a Transwell assay with matrigel after 24 h.
(§2) Cells were seeded and treated with 10 μg/ml mAb or inhibitor for 6 h; an unrelated mouse myeloma immunoglobulin used at appropriate dilution served as the IgG2a (Invitrogen #02-6200) isotype control. Apoptotic cells were detected using Annexin V-FITC and PI, and were analyzed using a flow cytometer (BD Immmunocytometry Systems). Early apoptosis was measured with the Annexin V-FITC Apoptosis Detection kit II (BD Pharmingen). Late apoptotic nuclei were detected with propidium iodide (PI) staining.

[3] = tested on: HCT116 cells; assay: Apoptosis assay, annexin V-FITC/PI double labeling, HCT116; format: cell-based, human; conditions: 10 μg/ml 24 h, FIG. 7C
Protocol: as §1, §2

[4] = tested on: ADAM17 and presenilin 2; assay: Western blotting of RIP proteins ADAM17 and presenilin 2 in HCT116 cells; format: cell-based, human; conditions: 10 μg/ml 16 h, then EpEX-His 50 nM 15 min, FIG. 7E
Protocol: as §1, with “(FIG. 7G) HCT116 and HT29 cells were treated with 10 μg/ml NMIgG or EpAb2-6 and 10 μM HGFR inhibitor crizotinib.” left out
Whole cell extracts were prepared with RIPA buffer (50 mM Tris-HCl pH7.4, 1% NP-40, 0.5% Sodium deoxycholate, 0.1% SDS, 150 mM NaCl, 2 mM EDTA, 50 mM NaF). Protein concentrations of the cell lysates were determined by the Bradford assay. […]
Appropriate horseradish peroxidase-associated secondary antibodies (Millipore) were applied and the membranes were incubated at room temperature (RT) for 1 h. The protein bands were subsequently visualized with chemiluminescence reagents (Millipore) and detected on a BioSpectrum 600 Imaging system (UVP). The protein level was quantified from band intensity using Gel-Pro analyzer 3.1 (Media Cybernetics).

[5] = biological target: T1, EpCAM (Homo sapiens, UniProt P16422); conditions: other anti-EpCAM antibodies, comparison in the description; cited from earlier work
T1 sequence (P16422 24-314): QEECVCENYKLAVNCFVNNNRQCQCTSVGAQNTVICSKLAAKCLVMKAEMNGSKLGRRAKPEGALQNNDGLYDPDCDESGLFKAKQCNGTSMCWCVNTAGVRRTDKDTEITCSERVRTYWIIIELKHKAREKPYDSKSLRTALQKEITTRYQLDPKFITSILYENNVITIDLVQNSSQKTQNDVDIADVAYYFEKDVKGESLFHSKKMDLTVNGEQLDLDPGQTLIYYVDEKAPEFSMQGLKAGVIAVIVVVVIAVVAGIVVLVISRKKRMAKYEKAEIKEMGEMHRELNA

[6] = tested on: cancer cells; conditions: comparison in the description; previous work; cited from earlier work
[7] = biological target: T2, HGFRECD-c-Myc (extracellular domain of HGFR with c-Myc tag, expressed in HEK293T cells) (UniProt P08581 25-932); assay: co-IP from transfected HEK293T cells (FIG. 1F)
T2 construct: extracellular domain; also called HGFRECD-c-Myc-tag; not shown: c-Myc tag
T2 sequence (P08581 25-932): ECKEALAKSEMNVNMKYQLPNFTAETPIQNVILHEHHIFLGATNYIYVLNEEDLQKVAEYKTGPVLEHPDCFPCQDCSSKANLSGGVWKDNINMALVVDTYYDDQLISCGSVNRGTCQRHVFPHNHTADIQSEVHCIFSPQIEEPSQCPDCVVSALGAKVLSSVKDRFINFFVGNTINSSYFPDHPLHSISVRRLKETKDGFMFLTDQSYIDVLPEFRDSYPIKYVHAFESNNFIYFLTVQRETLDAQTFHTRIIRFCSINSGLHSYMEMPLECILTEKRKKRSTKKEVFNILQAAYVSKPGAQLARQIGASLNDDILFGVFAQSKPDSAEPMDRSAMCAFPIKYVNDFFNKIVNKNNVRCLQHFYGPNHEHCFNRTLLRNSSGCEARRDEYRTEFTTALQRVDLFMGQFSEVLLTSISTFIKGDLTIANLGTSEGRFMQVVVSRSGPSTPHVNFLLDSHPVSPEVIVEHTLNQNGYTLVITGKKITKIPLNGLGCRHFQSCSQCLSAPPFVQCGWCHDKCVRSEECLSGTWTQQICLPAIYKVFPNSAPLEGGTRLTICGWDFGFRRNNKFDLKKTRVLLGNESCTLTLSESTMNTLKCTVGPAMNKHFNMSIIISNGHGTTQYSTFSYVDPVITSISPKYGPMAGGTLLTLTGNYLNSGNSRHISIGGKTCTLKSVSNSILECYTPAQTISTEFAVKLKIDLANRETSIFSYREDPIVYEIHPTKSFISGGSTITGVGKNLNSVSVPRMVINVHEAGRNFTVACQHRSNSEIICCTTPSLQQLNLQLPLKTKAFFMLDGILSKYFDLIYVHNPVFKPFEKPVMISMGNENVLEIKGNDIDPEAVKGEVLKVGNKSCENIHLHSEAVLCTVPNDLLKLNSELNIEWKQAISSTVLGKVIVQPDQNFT

[8] = biological target: T2, HGFRECD-c-Myc (extracellular domain of …); assay: co-IP with anti-c-Myc from transfected HEK293T cells (FIG. 1G)

B1: hEpAb2-6: humanized EpAb2-6 (antibody, V domains shown)
VH: VKLQESGPELKKPGETVKISCKASGYTFTDYSMHWVKQAPGKGLKWMGWINTETGEPTYADDFKGRFAFSLETSASTAYLQINNLKNEDTATYFCARTAVYWGQGTTVTVSS
VL: DIQMTQSPSSLSASLGERVSLTCRASQEISVSLSWLQQEPDGTIKRLIYATSTLDSGVPKRFSGSRSGSDYSLTISSLESEDFVDYYCLQYASYPWTFGGGTKLEIKRADAAPTVS
phosphorylation of HGFR, AKT, and ERK [1]: inhibited phosphorylation of HGFR, AKT, and ERK
apoptosis [2]: inducing apoptosis
apoptosis [3]: inducing apoptosis
levels of phosphorylated ADAM17 and presenilin 2 [4]: decreased

B2: edrecolomab: other antibody targeting only the EGF I domain of EpCAM (antibody, chains of the INN, looked up, V domains shown)
VH: QVQLQQSGAELVRPGTSVKVSCKASGYAFTNYLIEWVKQRPGQGLEWIGVINPGSGGTNYNEKFKGKATLTADKSSSTAYMQLSSLTSDDSAVYFCARDGPWFAYWGQGTLVTVSA
VL: NIVMTQSPKSMSMSVGERVTLTCKASENVVTYVSWYQQKPEQSPKLLIYGASNRYTGVPDRFTGSGSATDFTLTISSVQAEDLADYHCGQGYSYPYTFGGGTKLEIK
EpCAM domains bound [5]: target only the well-described EGF I domain of EpCAM; also recorded: binding to domain I only
inducing apoptosis of cancer cells [6]: failing to

B3: EpCAMΔEGFI-V5 (other)
chain: QEESKLAAKCLVMKAEMNGSKLGRRAKPEGALQNNDGLYDPDCDESGLFKAKQCNGTSMCWCVNTAGVRRTDKDTEITCSERVRTYWIIIELKHKAREKPYDSKSLRTALQKEITTRYQLDPKFITSILYENNVITIDLVQNSSQKTQNDVDIADVAYYFEKDVKGESLFHSKKMDLTVNGEQLDLDPGQTLIYYVDEKAPEFSMQGLKAGVIAVIVVVVIAVVAGIVVLVISRKKRMAKYEKAEIKEMGEMHRELNA
notes: also called EGF like-domain deletion mutant EpCAM-V5; not shown: V5 tag
binding result [7]: binds

Results, then the molecule that gave them:

binding result [7]: binds
B4: EpCAMΔEGFII-V5 (other)
chain: QEECVCENYKLAVNCFVNNNRQCQCTSVGAQNTVICSKLAAKSERVRTYWIIIELKHKAREKPYDSKSLRTALQKEITTRYQLDPKFITSILYENNVITIDLVQNSSQKTQNDVDIADVAYYFEKDVKGESLFHSKKMDLTVNGEQLDLDPGQTLIYYVDEKAPEFSMQGLKAGVIAVIVVVVIAVVAGIVVLVISRKKRMAKYEKAEIKEMGEMHRELNA
notes: as for B3

binding result [8]: binds
B5: EpEXΔEGFI-His (ligand)
chain: QEESKLAAKCLVMKAEMNGSKLGRRAKPEGALQNNDGLYDPDCDESGLFKAKQCNGTSMCWCVNTAGVRRTDKDTEITCSERVRTYWIIIELKHKAREKPYDSKSLRTALQKEITTRYQLDPKFITSILYENNVITIDLVQNSSQKTQNDVDIADVAYYFEKDVKGESLFHSKKMDLTVNGEQLDLDPGQTLIYYVDEKAPEFSMQGLK
notes: EpEX lacking aa 27-59; also called EGF like-domain deletion mutant EpEX-His; soluble EpEX mutant protein; not shown: His tag

binding result [8]: binds
B6: EpEXΔEGFII-His (ligand)
chain: QEECVCENYKLAVNCFVNNNRQCQCTSVGAQNTVICSKLAAKSERVRTYWIIIELKHKAREKPYDSKSLRTALQKEITTRYQLDPKFITSILYENNVITIDLVQNSSQKTQNDVDIADVAYYFEKDVKGESLFHSKKMDLTVNGEQLDLDPGQTLIYYVDEKAPEFSMQGLK
notes: EpEX lacking aa 66-135; also called EGF like-domain deletion mutant EpEX-His; soluble EpEX mutant protein; not shown: His tag
